Source: paper PMC3014985
Like-named read-outs stand apart in the source and are kept apart here.

Columns and labels:
Assay in all cases: SEC
[1] = target: 6His-TOSV NP (Toscana virus nucleoprotein with N-terminal hexahistidine tag), refolded (Toscana virus (strain AR2005)) (UniProt P21701)
[2] = target: RVFV NP (Rift Valley fever virus nucleoprotein after removal of the TRX-6His tag) (Rift Valley fever virus (strain Smithburn)) (UniProt P21700)
[3] = target: TOSV NP (Toscana virus nucleoprotein after removal of the TRX-6His tag) (Toscana virus (strain AR2005)) (UniProt P21701)
[4] = target: TOSV NP (Toscana virus nucleoprotein after removal of the TRX-6His tag) (Toscana virus (strain AR2005)) (UniProt P21701); remark: listed apart in the source

“6His-TOSV NP (Toscana virus nucleoprotein with N-terminal hexahistidine tag), refolded (from UniProt P21701 1-253) (natural protein)” was tested, and the stoichiometry N [1] was 3.
With “RVFV NP (Rift Valley fever virus nucleoprotein after removal of the TRX-6His tag) (from UniProt P21700 1-245) (natural protein)” the stoichiometry N [2] was 3.
“TOSV NP (Toscana virus nucleoprotein after removal of the TRX-6His tag) (from UniProt P21701 1-253) (natural protein)” gave a stoichiometry N [3] of 3 and a stoichiometry N [4] of 6.
